Target: T1, recombinant VEGF165 protein (human, UniProt P15692 27-191)
T1 construct: mature; the 165-residue isoform is meant; also called VEGF-A
Test: SPR in vitro binding, drug and recombinant VEGF165, 37 C
Description: Drug-specific parameters used are defined based upon which drug(s) is included in the specific simulation. These values are shown in Table 2 for brolucizumab, aflibercept, and ranibizumab. The drug:VEGF binding parameter values (the dissociation rate constant “koff” and the equilibrium binding constant “Kd”) were defined on the basis of a surface plasmon resonance (SPR) in vitro binding experiment with drug and recombinant VEGF165 protein at 37° C. according to manufacturer's instructions. The hydrodynamic radius values for drug (“rh_R”) and associated drug:VEGF complexes (“rh_VR” and “rh_RVR”) were sourced from literature reports (Caruso et. al., Mol. Pharmaceutics 2020, 17, 695-709) or from computational structure models of drug and VEGF. This includes estimated hydrodynamic radius values for the heterogenous complexes consisting of one VEGF dimer and two different VEGF antagonists (“rh_ROVR”). Drug-independent parameters used are used to describe VEGF production and distribution within and out of the eye, as well as general biophysical properties of the eye such as permeability coefficients for the Inner Limiting Membrane (ILM) and Retinal Pigment Epithelium (RPE) and the clearance rate from the aqueous chamber.

T1 sequence (P15692 other isoform, or with tags, fused parts or gaps): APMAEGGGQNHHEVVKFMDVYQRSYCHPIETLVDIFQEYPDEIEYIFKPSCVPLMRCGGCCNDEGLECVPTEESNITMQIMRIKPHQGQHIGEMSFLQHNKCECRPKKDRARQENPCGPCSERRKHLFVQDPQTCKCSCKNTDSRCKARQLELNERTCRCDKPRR

B1: brolucizumab (scFv)
scFv: MEIVMTQSPSTLSASVGDRVIITCQASEIIHSWLAWYQQKPGKAPKLLIYLASTLASGVPSRFSGSGSGAEFTLTISSLQPDDFATYYCQNVYLASTNGANFGQGTKLTVLGGGGGSGGGGSGGGGSGGGGSEVQLVESGGGLVQPGGSLRLSCTASGFSLTDYYYMTWVRQAPGKGLEWVGFIDPDDDPYYATWAKGRFTISRDNSKNTLYLQMNSLRAEDTAVYYCAGGDHNSGWGLDIWGQGTLVTVSS
notes: Humanized single-chain Fv (VL-linker-VH), ~26 kDa; also called Beovu; VEGF antagonist A
Kd: 0.101 nM
